Measurements taken from patent EP2078752A2 (LUDWIG INSTITUTE FOR CANCER RESEARCH, dated 2009).

Key:
Experiment in all cases: affinity cross-linking of 125I-activin A then immunoprecipitation, COS-1 cells co-transfected with ActR-II
[1] = target: T1, human ALK-1 (clone HP57) (human, UniProt P37023 22-503)
T1 construct: Expressed from cDNA in COS-1 cells, or endogenous in HUVEC; also called hALK-1

[2] = target: T2, human ALK-5 (clone EMBLA), TGF-β type I receptor (human, UniProt P36897 25-503)
T2 construct: Expressed from cDNA in COS-1 cells and PAE cells (PAE/TβR-I), or endogenous in human cell lines and HUVEC; also called hALK-5; TβR-I
T2 sequence: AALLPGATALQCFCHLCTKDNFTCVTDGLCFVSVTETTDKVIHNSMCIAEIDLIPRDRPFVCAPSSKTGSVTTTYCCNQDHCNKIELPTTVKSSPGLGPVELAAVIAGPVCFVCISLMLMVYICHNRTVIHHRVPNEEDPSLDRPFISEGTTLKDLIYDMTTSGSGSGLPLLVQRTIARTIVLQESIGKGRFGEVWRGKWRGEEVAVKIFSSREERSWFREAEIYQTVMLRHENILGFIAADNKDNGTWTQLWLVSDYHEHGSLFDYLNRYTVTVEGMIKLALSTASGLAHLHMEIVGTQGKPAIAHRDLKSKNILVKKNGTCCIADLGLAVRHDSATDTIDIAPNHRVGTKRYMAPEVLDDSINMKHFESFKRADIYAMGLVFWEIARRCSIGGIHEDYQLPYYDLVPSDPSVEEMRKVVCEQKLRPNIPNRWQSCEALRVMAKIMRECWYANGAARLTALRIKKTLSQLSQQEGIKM

[3] = target: T3, mouse ALK-6 (clone ME-6) (mouse, UniProt P36898 14-502)
T3 construct: Expressed from cDNA in COS-1 cells; also called mALK-6; BMPR-IB
T3 sequence (P36898 14-502 limits assumed): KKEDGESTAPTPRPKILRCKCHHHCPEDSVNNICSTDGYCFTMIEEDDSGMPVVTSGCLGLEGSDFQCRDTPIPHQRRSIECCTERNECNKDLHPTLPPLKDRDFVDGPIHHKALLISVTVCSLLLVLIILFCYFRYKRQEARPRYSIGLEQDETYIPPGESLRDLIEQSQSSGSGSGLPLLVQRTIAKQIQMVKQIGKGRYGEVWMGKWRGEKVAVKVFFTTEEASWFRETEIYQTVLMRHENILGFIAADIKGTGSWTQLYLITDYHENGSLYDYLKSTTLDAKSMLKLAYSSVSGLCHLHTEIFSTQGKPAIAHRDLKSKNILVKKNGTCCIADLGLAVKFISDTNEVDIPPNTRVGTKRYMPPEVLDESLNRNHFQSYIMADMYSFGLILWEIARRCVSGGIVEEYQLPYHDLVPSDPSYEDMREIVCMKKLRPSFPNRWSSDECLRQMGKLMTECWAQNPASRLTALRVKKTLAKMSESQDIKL

Measured: binding result

T1 sequence (P37023 22-503 S172T limits assumed): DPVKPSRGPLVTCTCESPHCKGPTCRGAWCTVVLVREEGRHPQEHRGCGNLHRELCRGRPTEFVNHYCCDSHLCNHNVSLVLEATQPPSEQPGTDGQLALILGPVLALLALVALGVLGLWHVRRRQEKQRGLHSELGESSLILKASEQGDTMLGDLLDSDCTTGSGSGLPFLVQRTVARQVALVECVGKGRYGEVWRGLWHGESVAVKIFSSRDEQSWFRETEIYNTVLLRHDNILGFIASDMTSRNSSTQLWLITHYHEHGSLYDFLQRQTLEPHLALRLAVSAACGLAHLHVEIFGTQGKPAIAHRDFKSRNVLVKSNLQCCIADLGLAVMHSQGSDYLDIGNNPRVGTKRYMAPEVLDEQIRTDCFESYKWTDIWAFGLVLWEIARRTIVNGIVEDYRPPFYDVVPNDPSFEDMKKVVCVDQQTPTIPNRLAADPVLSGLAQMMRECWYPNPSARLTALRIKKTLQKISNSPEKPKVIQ

B1: recombinant human activin A, iodinated (^125I-activin A) (ligand, UniProt P08476 311-426, looked up)
chain: GLECDGKVNICCKKQFFVSFKDIGWNDWIIAPSGYHANYCEGECPSHIAGTSGSSLSFHSTVINHYRMRGHSPFANLKSCCVPTKLRPMSMLYYDDGQNIIKKDIQNMIVEECGCS
modifications: 125I-iodinated by the chloramine T method
notes: Recombinant ligand
binds: all assays above
